US20200407436A1 (published 2020)
“And” between values parts separate entries of the source, which are not always exact repeats. Identical values can stand only once.

Experiments:
mature human TGF-beta 2 [1] = molecular target: T1, mature human TGF-beta 2 (human, UniProt P61812 303-414); assay: X-ray crystal structure of the complex
T1 construct: also called TGFb2; TGFB2
T1 sequence: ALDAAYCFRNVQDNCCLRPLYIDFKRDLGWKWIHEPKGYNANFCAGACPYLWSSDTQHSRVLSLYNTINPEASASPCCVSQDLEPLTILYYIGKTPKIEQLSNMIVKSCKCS

mature human TGF-beta 1 [2] = molecular target: T2, mature human TGF-beta 1 (human, UniProt P01137 279-390); assay: cell-based or functional assay
T2 sequence (P01137 279-390 limits assumed): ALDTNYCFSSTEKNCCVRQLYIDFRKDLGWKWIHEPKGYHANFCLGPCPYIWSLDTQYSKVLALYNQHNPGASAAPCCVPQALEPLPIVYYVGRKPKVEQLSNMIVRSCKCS

mature human TGF-beta 2 [3] = molecular target: T1, mature human TGF-beta 2; assay: cell-based or functional assay
mature human TGF-beta 3 [4] = molecular target: T3, mature human TGF-beta 3 (human, UniProt P10600 301-412); assay: cell-based or functional assay
T3 sequence: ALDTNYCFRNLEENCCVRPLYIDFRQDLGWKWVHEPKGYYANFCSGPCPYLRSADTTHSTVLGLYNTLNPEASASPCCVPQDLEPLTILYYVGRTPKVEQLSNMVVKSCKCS

[5] = molecular target: TGF-beta produced and activated by BxPC3 cells; assay: cell-based or functional assay
mature human TGF-beta 1 [6] = molecular target: T2, mature human TGF-beta 1; assay: SPR Biacore T200, TGF-beta amine-coupled (~150 RU), Fab as analyte; heterogeneous ligand fit, component 1 (KD1; believed occluded, weak interaction)
Description: (§1) Background subtraction binding curves were analysed using the Biacore™ T200 evaluation software (version 1.0) following standard procedures.

mature human TGF-beta 2 [7] = molecular target: T1, mature human TGF-beta 2; assay: as above
Description: as §1

mature human TGF-beta 3 [8] = molecular target: T3, mature human TGF-beta 3; assay: as above
Description: as §1

mature human TGF-beta 1 [9] = molecular target: T2, mature human TGF-beta 1; assay: SPR Biacore T200, TGF-beta amine-coupled (~150 RU), Fab as analyte; heterogeneous ligand fit, component 1 (Ka1; believed occluded, weak interaction)
Description: as §1

mature human TGF-beta 2 [10] = molecular target: T1, mature human TGF-beta 2; assay: as above
Description: as §1

mature human TGF-beta 3 [11] = molecular target: T3, mature human TGF-beta 3; assay: as above
Description: as §1

mature human TGF-beta 1 [12] = molecular target: T2, mature human TGF-beta 1; assay: SPR Biacore T200, TGF-beta amine-coupled (~150 RU), Fab as analyte; heterogeneous ligand fit, component 1 (Kd1; believed occluded, weak interaction)
Description: as §1

mature human TGF-beta 2 [13] = molecular target: T1, mature human TGF-beta 2; assay: as above
Description: as §1

mature human TGF-beta 3 [14] = molecular target: T3, mature human TGF-beta 3; assay: as above
Description: as §1

mature human TGF-beta 1 [15] = molecular target: T2, mature human TGF-beta 1; assay: SPR Biacore T200, TGF-beta amine-coupled (~150 RU), Fab as analyte; heterogeneous ligand fit, component 2 (KD2; believed non-occluded, representative)
Description: as §1

mature human TGF-beta 2 [16] = molecular target: T1, mature human TGF-beta 2; assay: as above
Description: as §1

mature human TGF-beta 3 [17] = molecular target: T3, mature human TGF-beta 3; assay: as above
Description: as §1

mature human TGF-beta 1 [18] = molecular target: T2, mature human TGF-beta 1; assay: SPR Biacore T200, TGF-beta amine-coupled (~150 RU), Fab as analyte; heterogeneous ligand fit, component 2 (ka2; believed non-occluded, representative)
Description: as §1

mature human TGF-beta 2 [19] = molecular target: T1, mature human TGF-beta 2; assay: as above
Description: as §1

mature human TGF-beta 3 [20] = molecular target: T3, mature human TGF-beta 3; assay: as above
Description: as §1

mature human TGF-beta 1 [21] = molecular target: T2, mature human TGF-beta 1; assay: SPR Biacore T200, TGF-beta amine-coupled (~150 RU), Fab as analyte; heterogeneous ligand fit, component 2 (kd2; believed non-occluded, representative)
Description: as §1

mature human TGF-beta 2 [22] = molecular target: T1, mature human TGF-beta 2; assay: as above
Description: as §1

mature human TGF-beta 3 [23] = molecular target: T3, mature human TGF-beta 3; assay: as above
Description: as §1

mature human TGF-beta 1 [24] = molecular target: T2, mature human TGF-beta 1; assay: cell-based or functional assay; remark: listed apart in the source
mature human TGF-beta 2 [25] = molecular target: T1, mature human TGF-beta 2; assay: cell-based or functional assay; remark: listed apart in the source
mature human TGF-beta 3 [26] = molecular target: T3, mature human TGF-beta 3; assay: cell-based or functional assay; remark: listed apart in the source
[27] = molecular target: TGF-beta produced and activated by BxPC3 cells; assay: cell-based or functional assay; remark: listed apart in the source

B1: scFv 4856 (scFv)
scFv: EVQLVESGGGLVKPGGSLRLSCAASGFSLSSYDMSWVRQAPGKCLEWIGIIYGGSGSTWYASWAKGRFTISRDSAKNSVYLQMNSLRAEDTAVYYCARGRDAGAGGSRNGYSLWGQGTLVTVSSGGGGSGGGGSGGGGSGGGGSAYDMTQSPSTLSASVGDRVTITCQASESIYSGLAWYQQKPGKAPKLLIYAASDLASGVPSRFSGSGSGTEYTLTISSLQPDDFATYYCQQTWTDGGIDNPFGCGTKVEIKRTENLYFQ
Mature human TGF-beta 2 [1]
  binding result: binds

B2: 4856 rabbit Fab (Fab, V domains shown)
VH: QSLEESGGRLVTPGTPLTLTCTASGFSLSSYDMSWVRQAPGKGLEWIGIIYGGSGSTWYASWAKGRFTMSKTSTTVDLKITSPTTEDMATYFCARGRDGGAGGSRNGYSLWGQGTLVTVSS
VL: AYDMTQTPASVEVAVGGTVTIKCQASESIYSGLAWYQQTPGQRPKLLIYAASDLASGVPSRFKGSGSGTEYTLTISGVECADAATYYCQQTWTDGGIDNPFGGGTEVVVKR
notes: Rabbit variable regions cloned into rabbit Fab no hinge (VH) and rabbit kappa (VL) vectors, expressed in Expi-293 cells; also called BSN.4856.rbFab
Mature human TGF-beta 1 [2]
  Geomean IC50, HEK-Blue TGF-beta reporter gene assay: 1.77 unit unclear (column head says nM, but r10 gives the nM value in brackets) and 0.04 nM
Mature human TGF-beta 2 [3]
  Geomean IC50, HEK-Blue TGF-beta reporter gene assay: 0.3 unit unclear (column head says nM, but r10 gives the nM value in brackets) and 0.01 nM
Mature human TGF-beta 3 [4]
  Geomean IC50, HEK-Blue TGF-beta reporter gene assay: 24.5 unit unclear (column head says nM, but r10 gives the nM value in brackets) and 0.54 nM
[5]
  Geomean IC50, BxPC3-HEK-Blue TGF-beta reporter gene co-culture assay: 3.7 nM
Mature human TGF-beta 1 [6]
  Kd: 6.3 nM
Mature human TGF-beta 2 [7]
  Kd: 1.69 nM
Mature human TGF-beta 3 [8]
  Kd: 12.4 nM
Mature human TGF-beta 1 [9]
  kon: 50500 M⁻¹ s⁻¹
Mature human TGF-beta 2 [10]
  kon: 38700 M⁻¹ s⁻¹
Mature human TGF-beta 3 [11]
  kon: 63300 M⁻¹ s⁻¹
Mature human TGF-beta 1 [12]
  koff: 0.000318 s⁻¹
Mature human TGF-beta 2 [13]
  koff: 6.55e-05 s⁻¹
Mature human TGF-beta 3 [14]
  koff: 0.000782 s⁻¹
Mature human TGF-beta 1 [15]
  Kd: 0.112 nM
Mature human TGF-beta 2 [16]
  Kd: 0.606 nM
Mature human TGF-beta 3 [17]
  Kd: 1.65 nM
Mature human TGF-beta 1 [18]
  kon: 455000 M⁻¹ s⁻¹
Mature human TGF-beta 2 [19]
  kon: 632000 M⁻¹ s⁻¹
Mature human TGF-beta 3 [20]
  kon: 873000 M⁻¹ s⁻¹
Mature human TGF-beta 1 [21]
  koff: 5.08e-05 s⁻¹
Mature human TGF-beta 2 [22]
  koff: 0.000383 s⁻¹
Mature human TGF-beta 3 [23]
  koff: 0.00144 s⁻¹

B3: humanised antibody 4856 Fab graft gL3gH23 (Fab, V domains shown)
VH: EVQLVESGGGLVKPGGSLRLSCAASGFSLSSYDMSWVRQAPGKGLEWIGIIYGGSGSTWYASWAKGRFTISRDSAKNSVYLQMNSLRAEDTAVYYCARGRDAGAGGSRNAYSLWGQGTLVTVSS
VL: AYDMTQSPSTLSASVGDRVTITCQASESIYSGLAWYQQKPGKAPKLLIYAASDLASGVPSRFSGSGSGTEYTLTISSLQPDDFATYYCQQTWTDGGIDNPFGGGTKVEIKR
Mature human TGF-beta 1 [24]
  Geometric mean IC50, HEK-Blue TGF-beta reporter gene assay: 0.41 nM
Mature human TGF-beta 2 [25]
  Geometric mean IC50, HEK-Blue TGF-beta reporter gene assay: 0.017 nM
Mature human TGF-beta 3 [26]
  Geometric mean IC50, HEK-Blue TGF-beta reporter gene assay: 1.99 nM
[27]
  Geometric mean IC50, BxPC3 and HEK-Blue TGF-beta reporter gene co-culture assay: 9.1 nM

B4: humanised antibody 4856 Fab graft gL3gH29 (Fab, V domains shown)
VH: EVQLVESGGGLVKPGGSLRLSCAASGFSLSSYDMSWVRQAPGKGLEWIGIIYGGSGSTWYASWAKGRFTISRDSAKNSVYLQMNSLRAEDTAVYYCARGRDAGAGGSRDGYSLWGQGTLVTVSS
VL: AYDMTQSPSTLSASVGDRVTITCQASESIYSGLAWYQQKPGKAPKLLIYAASDLASGVPSRFSGSGSGTEYTLTISSLQPDDFATYYCQQTWTDGGIDNPFGGGTKVEIKR
Mature human TGF-beta 1 [24]
  Geometric mean IC50, HEK-Blue TGF-beta reporter gene assay: 0.255 nM
Mature human TGF-beta 2 [25]
  Geometric mean IC50, HEK-Blue TGF-beta reporter gene assay: 0.016 nM
Mature human TGF-beta 3 [26]
  Geometric mean IC50, HEK-Blue TGF-beta reporter gene assay: 1.95 nM
[27]
  Geometric mean IC50, BxPC3 and HEK-Blue TGF-beta reporter gene co-culture assay: 3.77 nM

B5: humanised antibody 4856 Fab graft gL3gH20 (Fab, V domains shown)
VH: EVQLVESGGGLVKPGGSLRLSCAASGFSLSSYDMSWVRQAPGKGLEWISIIYGGSGSTWYASWAKGRFTMSKDSAKNSVYLQMNSLRAEDTAVYYCARGRDAGAGGSRNGYSLWGQGTLVTVSS
VL: AYDMTQSPSTLSASVGDRVTITCQASESIYSGLAWYQQKPGKAPKLLIYAASDLASGVPSRFSGSGSGTEYTLTISSLQPDDFATYYCQQTWTDGGIDNPFGGGTKVEIKR
Mature human TGF-beta 1 [24]
  Geometric mean IC50, HEK-Blue TGF-beta reporter gene assay: 0.038 nM
Mature human TGF-beta 2 [25]
  Geometric mean IC50, HEK-Blue TGF-beta reporter gene assay: 0.011 nM
Mature human TGF-beta 3 [26]
  Geometric mean IC50, HEK-Blue TGF-beta reporter gene assay: 0.302 nM
[27]
  Geometric mean IC50, BxPC3 and HEK-Blue TGF-beta reporter gene co-culture assay: 4.63 nM
